Laboratory results taken from patent publication US20250320288A1, “METHOD OF TREATING VITILIGO WITH INTERFERON-GAMMA ANTIBODY” (Elixiron Immunotherapeutics (Hong Kong), priority 2022, published 2025).
Entries after “also recorded” stand apart in the source; their conditions may differ.

Columns and labels:
melanocytes [1] = test: Lipid peroxidation in melanocytes (BODIPY 581/591 C11); format: cell-based, human; conditions: dose-dependent, Day 6
Experimental: For lipid peroxidation examination, melanocyte cells were seeded in a 6-well plate and treated with IFN-γ the next day. Melanocytes were washed with PBS and incubated with Hanks balanced salt solution (HBSS, Gibco) containing 5 μM BODIPY 581/591 C11 (Invitrogen, D3861) and incubated for 15 minutes at 37° C. in a tissue culture incubator. The cells were resuspended with fresh HBSS and examined with flow cytometry; the data were analyzed with FlowJo.

melanocytes [2] = test: Melanocyte apoptosis, Annexin V / 7AAD flow cytometry; format: cell-based, human; conditions: IFN-γ 10 or 100 ng/ml, 48 hrs
Experimental: Materials and methods: Melanocyte cell apoptosis was detected with Annexin V (BD, 550474) and 7AAD (1 mg/mL, Sigma A9400-1 MG). The cells were detached and resuspended with […] binding buffer (BD, 556454) containing Annexin V and 7AAD for 15 min at room temperature in the dark. Before analysis, cells were added to a […] binding buffer and immediately analyzed a on a flow cytometer (Verse BD).

melanocytes [3] = test: Intracellular ROS in melanocytes (CM-H2DCFDA); format: cell-based, human; conditions: 10 and 100 ng/mL IFN-γ, day 7
Experimental: Materials and methods: For intracellular ROS measurement, melanocytes were washed with PBS and incubated with 20 μM CM-H2DCFDA (Invitrogen) for 30 min at 37° C. in the dark. The cells were resuspended with PBS and examined with flow cytometry at an excitation wavelength of 488 nm and an emission wavelength of 530 nm; the data were analyzed with FlowJo.

[4] = system: human primary melanocytes (HEMn-DP); test: IFN-γ inhibition of human primary melanocyte cell viability (CellTiter-Glo); format: cell-based; conditions: 72 hrs at 37° C.
Experimental: Materials and methods: To examine the dose-dependency of IFN-γ inhibition of human primary melanocytes (HEMn-DP) cell viability, HEMn-DP cells were seeded into a 96-well plate at a concentration of 10,000 cells/well in 100 μL assay medium (M254 supplemented with 1× HMGS, 10 ng/mL PMA plus Penicillin-Streptomycin) at 37° C. for 5 hours. After seeding, 100 μL of IFN-γ serial dilutions were added, followed by incubation at 37° C. for 72 hrs. Then, cell proliferation was measured using CellTiter-Glo kit (Promega) according to the manufacturer's instructions. Luminescence was measured with an iD3 multimode reader (Molecular Devices), and data analyzed using nonlinear regression curve fit using GraphPad Prism7.

primary melanocytes [5] = test: Cell morphology assay in melanocytes; format: cell-based, human
[6] = system: human primary melanocytes (HEMn-DP); test: IFN-γ inhibition of melanocyte melanogenesis (melanin content, absorbance 470 nm); format: cell-based
Experimental: Materials and methods: To examine the dose-dependency of IFN-γ inhibition of HEMn-DP cell melanogenesis, HEMn-DP cells were seeded into a 24-well plate at a concentration of 200,000 cells/well in 1 mL assay medium (M254 supplemented with 1× HMGS, 10 ng/mL PMA plus Penicillin-Streptomycin) with serial dilutions of IFN-γ, followed by incubation at 37° C. for 7 days. The cell assay medium was replaced by fresh medium with serially titrated concentrations of IFN-γ on day 3 and day 5. On day 7, cells were first washed with PBS twice, lysed in 250 μL of 1N NaOH/10% DMSO solution, then incubated at 80° C. for 1 hr. After lysis, each lysate was transfer to 96 well plate, and absorbance of melanin was then measured at […]. The relative melanin quantity was normalized with cell viability of each sample which was measured by CellTiter-Glo kit, and data were analyzed using nonlinear regression curve fit using GraphPad Prism7. To determine the potency of EI-001, HEMn-DP cells were seeded as previously described, and IFN-γ pre-incubated with indicated amounts of EI-001 for 25 min in 1 mL of assay medium. After incubation, the mixture was added to each well (final IFN-γ concentration is 20 ng/ml). Melanin content of melanocytes was determined as previously described.

primary melanocytes [7] = test: Melanocyte cell viability after IFN-γ, chemokines, cell death inhibitors or 2A6Q, Day 2 and Day 7; format: cell-based, human; conditions: day 7 of treatment
Experimental: To determine cell viability of melanocyte after treatment with IFN-γ, CXCL9, CXCL10, CXCL11, at Day 2, and Day 7, the cells were collected and seeded into 96-well plates. After adhesion, cells were treated with IFN-γ (0, 10, 100 ng/ml) with different compounds: 2A6Q, CXCL9, CXCL10, CXCL11, ROS scavenger (NAC), necroptosis inhibitor (NEC-1), pyroptosis inhibitor (VX-765), apoptosis inhibitor (QVD-OPH), Ferroptosis inhibitor (Liproxstaitin-1, Ferrostatin-1, DFO). Cell viability was measured using a CellTiter-Glo luminescent cell viability assay kit (Promega) according to the manufacturer's protocol. The […] of the final reaction product was measured using a luminometer (SpectraMax® iD3 Multi-Mode Microplate Reader (Molecular Devices). After calculation, the viability of control cells was 100%, and all others were normalized to control and shown as relative cell viability (%). Treatment dosage N-acetylcysteine (NAC; 0.05 mM, 1 mM), Necrostatin-1 (NEC-1; 20 μM, 2 μM), Belnacasan (VX-765; 50 μg/mL, 5 μg/mL), Quinoline-Val Asp-Difluorophenoxymethylketone (QVD-OPH; 10 μM, 2 μM), Liproxstaitin-1 (10 μM, 5 μM, 1 μM, 0.05 μM), Ferrostatin-1 (5 μM, 1 μM), Deferoxamine (DFO; 10 μM, […], 1 μM, 0.05 μM), 2A6Q (10 μg/mL), CXCL9 (10 ng/mL, 10 pg/mL), CXCL10 (10 ng/ml, 10 pg/mL), CXCL11(10 ng/mL, 10 pg/mL).

SLC7A11 = test: Ferroptosis regulators in melanocytes (RNA sequencing, SLC7A11 immunoblot); format: cell-based, human
Source text: (§1) Total RNA was extracted from melanocytes with an RNA purification kit (Zymo Research, r2050). After RNA samples were extracted from primary melanocytes and melanocytes cell line (Gibco), the samples were sent to Biotools Co., Ltd Taiwan for RNA sequence. The RNA quality was examined by Agilent Technologies 2100 Bio-analyzer with an RNA integrity value greater than 8. After rRNA depletion (Epicenter), RNA fragmentation, and library preparation (Illumina), the constructed libraries were then performed 150 bp paired-end sequencing by an Illumina NovaSeq6000 sequencer. The results from each sample were aligned to the GRCh38 genome by the HISAT2 software and analyzed by Biotools Co., Ltd Taiwan.
(§2) Cells were washed in PBS and lysed in RIPA lysis buffer with proteases inhibitor and Phenylmethanesulfonyl fluoride (PMSF; Sigma-Aldrich, P7626). The total cell lysates were sonicated and centrifuged at 4° C., 13000 rpm for 30 min. Protein concentration was quantified using the Bradford assay. The total cell lysates were separated by SDS-PAGE and transferred to a PVDF membrane. The membrane was blocked with 5% BSA or 5% milk in TBST for 1 hour at room temperature and incubated with primary antibodies overnight at 4° C. and HRP-conjugated secondary antibodies for hour at room temperature. The protein was visualized by Thermo ibright1500. Primary antibodies were follows: anti-human SLC7A11 (CST, 12691), anti-human SLC3A2 (CST, 13180), anti-IRF1 (CST, 8478), anti-MITF (CST, 12590), and anti-GAPDH (Abcam, ab8245).

MITF = test: Melanin regulators in melanocytes (RNA sequencing, MITF immunoblot); format: cell-based, human
Source text: as §1, §2

B1: IFN-γ: recombinant human interferon gamma, cytokine added to melanocytes (protein, UniProt P01579 24-161, looked up)
Interferon gamma: QDPYVKEAENLKKYFNAGHSDVADNGTLFLGILKNWKEESDRKIMQSQIVSFYFKLFKNFKDDQSIQKSVETIKEDMNVKFFNSNKKKRDDFEKLTNYSVTDLNVQRKAIHELIQVMAELSPAAKTGKRKRSQMLFRG
lipid peroxidation level in melanocytes (melanocytes [1]): increased
early phase apoptosis in melanocytes (Annexin V) (melanocytes [2]): induced early phase apoptosis; also recorded: significantly upregulate Annexin V but not 7AAD
intracellular ROS in melanocytes (melanocytes [3]): significantly elevated
IC50 of IFN-γ causing 50% inhibition of melanocyte viability [4]: 8.114 ng/mL
lowest concentration at which the morphology effect is present (primary melanocytes [5]; dose-dependent effect): 1 ng/ml
morphology change in melanocyte (loss of dendrite, ballooning of cytoplasm) (primary melanocytes [5]; primary melanocytes, 7 days of treatment): contributes to morphology change
IC50 of IFN-γ causing 50% inhibition of melanocyte melanogenesis ([6]; human primary melanocytes, 7 days, melanin content): 0.392 ng/mL
melanin content of melanocytes under IFN-γ ([6]; spectrophotometer): decrease in melanin content in a dose-dependent manner
effect on cell viability of melanocytes (individual cytokine) (primary melanocytes [7]): significantly decreases
expression of ferroptosis markers SLC7A11, SLC3A2, Ferritin, GPX4 and TFR1 (RNA sequencing) (SLC7A11; 24 hrs IFN-γ): downregulation
expression of SLC7A11 (immunoblot) (SLC7A11; 48 hours incubation with IFN-γ): dose-dependently downregulated
expression of MITF (immunoblot) (MITF; melanocytes, 24 hrs of treatment): dose-dependently downregulates
expression of melanin regulators (MITF, MLANA, TYRP1, DCTT, TYR, TRPM1) (MITF; primary melanocyte, IFN-γ 100 ng/ml 24 hrs vs control, transcriptome): induced downregulation of melanin regulators

B2: CXCL9: IFN-γ downstream cytokine added to melanocytes (protein, UniProt Q07325 23-125, looked up)
C-X-C motif chemokine 9: TPVVRKGRCSCISTNQGTIHLQSLKDLKQFAPSPSCEKIEIIATLKNGVQTCLNPDSADVKELIKKWEKQVSQKKKQKNGKKHQKKKVLKVRKSQRSRQKKTT
effect on cell viability of melanocytes (individual cytokine) (primary melanocytes [7]): not CXCL9, CXCL10, or CXCL11 significantly decreases

B3: CXCL11: IFN-γ downstream cytokine added to melanocytes (protein, UniProt O14625 22-94, looked up)
C-X-C motif chemokine 11: FPMFKRGRCLCIGPGVKAVKVADIEKASIMYPSNNCDKIEVIITLKENKGQRCLNPKSKQARLIIKKVERKNF
effect on cell viability of melanocytes (individual cytokine) (primary melanocytes [7]): not CXCL9, CXCL10, or CXCL11 significantly decreases
